Experimental data from patent publication US20220177587A1, “METHODS AND USES OF VARIANT CD80 FUSION PROTEINS AND RELATED CONSTRUCTS” (Alpine Immune Sciences, Inc., priority 2018, published 2022).

Key:
CD28 [1] = biological target: T1, CD28 (Homo sapiens, UniProt P10747); experiment: Flow binding to Jurkat/IL2 reporter cells (CD28); set-up: host or cells: Jurkat cells expressing an IL-2-luciferase reporter; conditions: Table E23; for CD28 MFI at 33.3 nM: CD80 IgV-Fc (inert) at 33.3 nM, Jurkat (CD28); for CD28 Fold change to WT CD80: MFI at 33.3 nM relative to CD80 WT IgV-Fc
Method in brief: (§1)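 Fusion proteins bound to CHO cells stably expressing CTLA4 or PD-L1, or to Jurkat/IL2 reporter cells with endogenous CD28, for 45 min on ice after blocking in PBS/1% BSA. Detection with PE anti-human Fc by flow cytometry; PE MFI per cell type and binding EC50 determined.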

CD28 [2] = biological target: T1, CD28; experiment: Jurkat/IL2 + CHO/OKT3 +/- PD-L1 reporter assay: PD-L1-dependent CD28 costimulation; assay type: cell-based; set-up: host or cells: Jurkat cells expressing an IL-2-luciferase reporter; conditions: Table E24; Jurkat/IL2 + CHO/OKT3/PD-L1; 5.0 nM
Method in brief: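 Jurkat reporter cells (100,000/well) preincubated 15 min at room temperature with test protein, then cocultured 5 h at 37 °C with CHO aAPCs bearing anti-CD3 scFv (OKT3) with or without PD-L1. Luciferase luminescence (RLU) read after lysis-substrate addition.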

huCTLA4 = huCTLA4 (Homo sapiens, UniProt P16410); experiment: Flow binding to CHO cells stably expressing CTLA4; set-up: huCTLA4 and huPD-L1, full-length mammalian surface expression constructs were generated; expressed in transfected cells; host or cells: CHO cells, lentiviral transduction, sorted to >98% purity; conditions: Table E23; for CTLA4 MFI at 33.3 nM: CD80 IgV-Fc (inert) at 33.3 nM, CHO cells stably expressing CTLA4; for CTLA4 Fold change to WT CD80: MFI at 33.3 nM relative to CD80 WT IgV-Fc
Chain of huCTLA4 (P16410 36-223): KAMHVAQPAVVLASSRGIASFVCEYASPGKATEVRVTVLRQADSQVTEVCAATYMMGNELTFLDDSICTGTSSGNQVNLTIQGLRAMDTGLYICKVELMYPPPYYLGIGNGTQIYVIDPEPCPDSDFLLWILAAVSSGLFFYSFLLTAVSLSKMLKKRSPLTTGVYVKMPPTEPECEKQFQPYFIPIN
Method in brief: as §1

huPD-L1 = huPD-L1 (Homo sapiens, UniProt Q9NZQ7); experiment: Flow binding to CHO cells stably expressing PD-L1; set-up: huCTLA4 and huPD-L1, full-length mammalian surface expression constructs were generated; expressed in transfected cells; host or cells: CHO cells, lentiviral transduction, sorted to >98% purity; conditions: Table E23; for PD-L1 MFI at 33.3 nM: CD80 IgV-Fc (inert) at 33.3 nM, CHO cells stably expressing PD-L1; for PD-L1 Fold change to WT CD80: MFI at 33.3 nM relative to CD80 WT IgV-Fc; for Ratio of PDL1:CD28: ratio of MFI at 33.3 nM
Chain of huPD-L1 (Q9NZQ7 19-290): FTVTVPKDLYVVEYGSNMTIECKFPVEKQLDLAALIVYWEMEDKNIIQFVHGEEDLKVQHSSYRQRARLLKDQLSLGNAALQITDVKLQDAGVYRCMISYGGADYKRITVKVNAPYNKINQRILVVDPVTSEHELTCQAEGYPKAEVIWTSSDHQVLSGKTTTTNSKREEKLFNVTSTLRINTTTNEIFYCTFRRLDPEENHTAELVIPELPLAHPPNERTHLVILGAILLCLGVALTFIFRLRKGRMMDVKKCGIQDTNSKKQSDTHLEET
Method in brief: as §1

| Molecule | CD28 MFI at 33.3 nM (CD28 [1]) | CD28 Fold change to WT CD80 (CD28 [1]) | Fold Increase over WT CD80-IgV-Fe (CD28 [2]) | Relative Luciferase Units (RLU), CD80 Conc 5.0 nM (CD28 [2]) [RLU] | CTLA4 MFI at 33.3 nM (huCTLA4) | CTLA4 Fold change to WT CD80 (huCTLA4) | PD-L1 MFI at 33.3 nM (huPD-L1) | PD-L1 Fold change to WT CD80 (huPD-L1) | Ratio of PDL1:CD28 (huPD-L1) |
| --- | --- | --- | --- | --- | --- | --- | --- | --- | --- |
| H18C/A26P/E35D/M47L/V68M/A71G (protein, UniProt P33681 35-288, looked up, variant H18C A26P E35D M47L V68M A71G) T-lymphocyte activation …: VIHVTKEVKEVATLSCGCNVSVEELPQTRIYWQKDKKMVLTMMSGDLNIWPEYKNRTIFDITNNLSIMILGLRPSDEGTYECVVLKYEKDAFKREHLAEVTLSVKADFPTPSISDFEIPTSNIRRIICSTSGGFPEPHLSWLENGEELNAINTTVSQDPETELYAVSSKLDFNMTTNHSFMCLIKYGHLRVNQTFNWNTTKQEHFPDNLLPSWAITLISVNGIFVICCLTYCFAPRCRERRRNERLRRESVRPV | 1906 | 18.7 | 5.5 | 936 | 23371 | 16.9 | 67010 | 406.1 | 35.2 |
| H18L/A26N/D46E/V68M/A71G/D90G (protein, UniProt P33681 35-288, looked up, variant H18L A26N D46E V68M A71G D90G) T-lymphocyte activation …: VIHVTKEVKEVATLSCGLNVSVEELNQTRIYWQKEKKMVLTMMSGEMNIWPEYKNRTIFDITNNLSIMILGLRPSDEGTYECVVLKYEKGAFKREHLAEVTLSVKADFPTPSISDFEIPTSNIRRIICSTSGGFPEPHLSWLENGEELNAINTTVSQDPETELYAVSSKLDFNMTTNHSFMCLIKYGHLRVNQTFNWNTTKQEHFPDNLLPSWAITLISVNGIFVICCLTYCFAPRCRERRRNERLRRESVRPV | 7253 | 71.1 | 4.8 | 815 | 17045 | 12.3 | 67999 | 412.1 | 9.4 |
| H18T/A26N/E35D/M47L/V68M/A71G (protein, UniProt P33681 35-288, looked up, variant H18T A26N E35D M47L V68M A71G, Fc fusion) T-lymphocyte activation …: VIHVTKEVKEVATLSCGTNVSVEELNQTRIYWQKDKKMVLTMMSGDLNIWPEYKNRTIFDITNNLSIMILGLRPSDEGTYECVVLKYEKDAFKREHLAEVTLSVKADFPTPSISDFEIPTSNIRRIICSTSGGFPEPHLSWLENGEELNAINTTVSQDPETELYAVSSKLDFNMTTNHSFMCLIKYGHLRVNQTFNWNTTKQEHFPDNLLPSWAITLISVNGIFVICCLTYCFAPRCRERRRNERLRRESVRPV | 1366 | 13.4 | 6.2 | 1053 | 20911 | 15.1 | 68498 | 415.1 | 50.1 |
| H18V/A26P/E35D/M47L/V68M/A71G (protein, UniProt P33681 35-288, looked up, variant H18V A26P E35D M47L V68M A71G) T-lymphocyte activation …: VIHVTKEVKEVATLSCGVNVSVEELPQTRIYWQKDKKMVLTMMSGDLNIWPEYKNRTIFDITNNLSIMILGLRPSDEGTYECVVLKYEKDAFKREHLAEVTLSVKADFPTPSISDFEIPTSNIRRIICSTSGGFPEPHLSWLENGEELNAINTTVSQDPETELYAVSSKLDFNMTTNHSFMCLIKYGHLRVNQTFNWNTTKQEHFPDNLLPSWAITLISVNGIFVICCLTYCFAPRCRERRRNERLRRESVRPV | 2452 | 24.0 | 4.7 | 808 | 16192 | 11.7 | 52405 | 317.6 | 21.4 |
| H18V/A26D/E35D/M47V/V68M/A71G/D90G (protein, UniProt P33681 35-288, looked up, variant H18V A26D E35D M47V V68M A71G D90G, Fc fusion) T-lymphocyte activation …: VIHVTKEVKEVATLSCGVNVSVEELDQTRIYWQKDKKMVLTMMSGDVNIWPEYKNRTIFDITNNLSIMILGLRPSDEGTYECVVLKYEKGAFKREHLAEVTLSVKADFPTPSISDFEIPTSNIRRIICSTSGGFPEPHLSWLENGEELNAINTTVSQDPETELYAVSSKLDFNMTTNHSFMCLIKYGHLRVNQTFNWNTTKQEHFPDNLLPSWAITLISVNGIFVICCLTYCFAPRCRERRRNERLRRESVRPV | 6253 | 61.3 | 4.5 | 771 | 22132 | 16.0 | 67503 | 409.1 | 10.8 |
